This note sets out measurements from patent US5831003A, “Peptides which bind to prothrombin and thrombin” (Bayer Corporation, priority 1996, dated 1998).

The assay has as its target T1, α-thrombin (Homo sapiens, UniProt P00734).
T1 construct: α-Thrombin is the active form of the plasma serine protease zymogen, prothrombin; purchased Enzyme Research Labs (South Bend, Ind.)
As to the kind of experiment: Confirmatory binding assay in column chromatographic format, peptides synthesized on A-Totda-Toyopearl. The note with it: for Absorbance, 280 nm 1M NaCl Eluate / Absorbance, 280 nm 2% Acetic Acid: integration of A280; for binding of thrombin to peptide resin (in words): summary of Table 2. The procedure: Confirmatory binding assays were performed in a column chromatographic format on a microbore HPLC using individual peptide sequences synthesized directly onto the Toyopearl 650 M Chelate resin which had been modified with Totda followed by an alanine residue (A-Totda-Toyopearl), at a final substitution density of 0.2 mmol/g resin. […] The endpoint was a dose-dependent increase in the acid eluate in the thrombin contactings, and quantification was by integration of the absorbance at 280 nm.

Ends that are not written are not given here.

For “ERPYHG (not fully specified (C-terminus)) [peptide synthesized on A-Totda-Toyopearl resin]”, the “binding of thrombin to peptide resin (in words)” value (“binding of thrombin” below) is listed as “not”. For the same substance, for the setting “50 μg α-thrombin applied”, the “Absorbance, 280 nm 1M NaCl Eluate” value is reported as 0.00 and the “Absorbance, 280 nm 2% Acetic Acid” value is 0.00. Besides, where the note is “100 μg α-thrombin applied”, the “Absorbance, 280 nm 1M NaCl Eluate” value came to 0.18 and the “Absorbance, 280 nm 2% Acetic Acid” value worked out at 0.00. Besides, under “200 μg α-thrombin applied”, the “Absorbance, 280 nm 1M NaCl Eluate” value is reported as 0.69 and the “Absorbance, 280 nm 2% Acetic Acid” value is listed as 0.00.
As to “ERPYKG (not fully specified (C-terminus)) [peptide synthesized on A-Totda-Toyopearl resin]”, the “binding of thrombin” value is on record as “bound thrombin”. In addition, where the note is “50 μg α-thrombin applied”, the “Absorbance, 280 nm 1M NaCl Eluate” value is listed as 0.23 and the “Absorbance, 280 nm 2% Acetic Acid” value worked out at 0.41. In addition, where the note is “100 μg α-thrombin applied”, the “Absorbance, 280 nm 1M NaCl Eluate” value was 0.23 and the “Absorbance, 280 nm 2% Acetic Acid” value was 0.99. Also, under “200 μg α-thrombin applied”, the “Absorbance, 280 nm 1M NaCl Eluate” value is 0.26 and the “Absorbance, 280 nm 2% Acetic Acid” value is listed as 2.38.
On to “FEPANP (not fully specified (C-terminus)) [peptide synthesized on A-Totda-Toyopearl resin]”, for which the “binding of thrombin” value is “bound thrombin”. Besides, under “50 μg α-thrombin applied”, the “Absorbance, 280 nm 1M NaCl Eluate” value was 0.00 and the “Absorbance, 280 nm 2% Acetic Acid” value came out at 0.15. Also, under “100 μg α-thrombin applied”, the “Absorbance, 280 nm 1M NaCl Eluate” value is listed as 0.00 and the “Absorbance, 280 nm 2% Acetic Acid” value was found to be 0.29. Also, under “200 μg α-thrombin applied”, the “Absorbance, 280 nm 1M NaCl Eluate” value is 0.10 and the “Absorbance, 280 nm 2% Acetic Acid” value is reported as 0.45.
“GFRKGP (not fully specified (C-terminus)) [peptide synthesized on A-Totda-Toyopearl resin]”: the “binding of thrombin” value is on record as “bound thrombin”. Where the note is “50 μg α-thrombin applied”, the “Absorbance, 280 nm 1M NaCl Eluate” value came out at 0.12 and the “Absorbance, 280 nm 2% Acetic Acid” value came to 0.41. For the same substance, for the setting “100 μg α-thrombin applied”, the “Absorbance, 280 nm 1M NaCl Eluate” value is 0.15 and the “Absorbance, 280 nm 2% Acetic Acid” value is 0.77. For the same substance, under “200 μg α-thrombin applied”, the “Absorbance, 280 nm 1M NaCl Eluate” value is 0.25 and the “Absorbance, 280 nm 2% Acetic Acid” value amounted to 1.71.
With GFRNGP [GERNGP], the “binding of thrombin” value is “bound thrombin”. Moreover, for the setting “50 μg α-thrombin applied”, the “Absorbance, 280 nm 1M NaCl Eluate” value is 0.00 and the “Absorbance, 280 nm 2% Acetic Acid” value was 0.71. In addition, under “100 μg α-thrombin applied”, the “Absorbance, 280 nm 1M NaCl Eluate” value is listed as 0.00 and the “Absorbance, 280 nm 2% Acetic Acid” value came out at 1.42. Further, for the setting “200 μg α-thrombin applied”, the “Absorbance, 280 nm 1M NaCl Eluate” value worked out at 0.13 and the “Absorbance, 280 nm 2% Acetic Acid” value was 2.73.
Turning to HQLWGSH, the “binding of thrombin” value is “enhanced binding”. In addition, under “50 μg α-thrombin applied”, the “Absorbance, 280 nm 1M NaCl Eluate” value is “np” and the “Absorbance, 280 nm 2% Acetic Acid” value came to 0.58. Further, under “100 μg α-thrombin applied”, the “Absorbance, 280 nm 1M NaCl Eluate” value is given as “np” and the “Absorbance, 280 nm 2% Acetic Acid” value amounted to 0.95. Under “200 μg α-thrombin applied”, the “Absorbance, 280 nm 1M NaCl Eluate” value is reported as “np” and the “Absorbance, 280 nm 2% Acetic Acid” value worked out at 1.76.
Turning to LFAPTL, the “binding of thrombin” value is “bound thrombin”. In addition, where the note is “50 μg α-thrombin applied”, the “Absorbance, 280 nm 1M NaCl Eluate” value is “np” and the “Absorbance, 280 nm 2% Acetic Acid” value came to 0.18. For the same substance, for the setting “100 μg α-thrombin applied”, the “Absorbance, 280 nm 1M NaCl Eluate” value is recorded as “np” and the “Absorbance, 280 nm 2% Acetic Acid” value is 0.44. Moreover, under “200 μg α-thrombin applied”, the “Absorbance, 280 nm 1M NaCl Eluate” value is on record as “np” and the “Absorbance, 280 nm 2% Acetic Acid” value stood at 1.25.
“LTPFAV (not fully specified (C-terminus)) [peptide synthesized on A-Totda-Toyopearl resin]”: the “Absorbance, 280 nm 1M NaCl Eluate” value is on record as “np” (50 μg α-thrombin applied), “np” (100 μg α-thrombin applied) and “np” (200 μg α-thrombin applied). The “Absorbance, 280 nm 2% Acetic Acid” value is listed as 0.00 (50 μg α-thrombin applied), 0.00 (100 μg α-thrombin applied) and 0.00 (200 μg α-thrombin applied).
Consider PFAPTL, for which the “binding of thrombin” value is recorded as “not”. Further, for the setting “50 μg α-thrombin applied”, the “Absorbance, 280 nm 1M NaCl Eluate” value is reported as “np” and the “Absorbance, 280 nm 2% Acetic Acid” value is reported as “np”. In addition, under “100 μg α-thrombin applied”, the “Absorbance, 280 nm 1M NaCl Eluate” value is given as “np” and the “Absorbance, 280 nm 2% Acetic Acid” value is “np”. Further, under “200 μg α-thrombin applied”, the “Absorbance, 280 nm 1M NaCl Eluate” value is “np” and the “Absorbance, 280 nm 2% Acetic Acid” value was “np”.
With “PFPYAW (not fully specified (C-terminus)) [peptide synthesized on A-Totda-Toyopearl resin]”, the “binding of thrombin” value is recorded as “bound thrombin”. Also, under “50 μg α-thrombin applied”, the “Absorbance, 280 nm 1M NaCl Eluate” value is given as “np” and the “Absorbance, 280 nm 2% Acetic Acid” value is 0.50. In addition, for the setting “100 μg α-thrombin applied”, the “Absorbance, 280 nm 1M NaCl Eluate” value is reported as “np” and the “Absorbance, 280 nm 2% Acetic Acid” value amounted to 1.05. Also, under “200 μg α-thrombin applied”, the “Absorbance, 280 nm 1M NaCl Eluate” value was “np” and the “Absorbance, 280 nm 2% Acetic Acid” value was found to be 1.10.
In the case of “PFPYGW (not fully specified (C-terminus)) [peptide synthesized on A-Totda-Toyopearl resin]”, the “binding of thrombin” value was “bound thrombin”. Also, for the setting “50 μg α-thrombin applied”, the “Absorbance, 280 nm 1M NaCl Eluate” value is recorded as “np” and the “Absorbance, 280 nm 2% Acetic Acid” value turned out to be 0.47. Besides, under “100 μg α-thrombin applied”, the “Absorbance, 280 nm 1M NaCl Eluate” value is “np” and the “Absorbance, 280 nm 2% Acetic Acid” value stood at 0.79. Besides, where the note is “200 μg α-thrombin applied”, the “Absorbance, 280 nm 1M NaCl Eluate” value is “np” and the “Absorbance, 280 nm 2% Acetic Acid” value came out at 1.37.
With “PFPYVW (not fully specified (C-terminus)) [peptide synthesized on A-Totda-Toyopearl resin]”, the “binding of thrombin” value is listed as “bound thrombin”. For the setting “50 μg α-thrombin applied”, the “Absorbance, 280 nm 1M NaCl Eluate” value is “np” and the “Absorbance, 280 nm 2% Acetic Acid” value was determined as 2.82. Also, for the setting “100 μg α-thrombin applied”, the “Absorbance, 280 nm 1M NaCl Eluate” value is on record as “np” and the “Absorbance, 280 nm 2% Acetic Acid” value is 2.14. Besides, under “200 μg α-thrombin applied”, the “Absorbance, 280 nm 1M NaCl Eluate” value was “np” and the “Absorbance, 280 nm 2% Acetic Acid” value came to 3.32. For the same substance, where the note is “50, 100 and 200 μg α-thrombin”, the “dose dependence of thrombin in the acid eluant (in words)” value was “not in a dose dependent manner”.
On to “RQLWQSH [RQLWGSH, variant of QLWGSH with added amino-terminal arginine, on A-Totda-Toyopearl resin]”, for which the “binding of thrombin” value was “enhanced binding”. For the same substance, under “50 μg α-thrombin applied”, the “Absorbance, 280 nm 1M NaCl Eluate” value is “np” and the “Absorbance, 280 nm 2% Acetic Acid” value is listed as 0.75. Besides, for the setting “100 μg α-thrombin applied”, the “Absorbance, 280 nm 1M NaCl Eluate” value is listed as “np” and the “Absorbance, 280 nm 2% Acetic Acid” value worked out at 1.49. For the same substance, where the note is “200 μg α-thrombin applied”, the “Absorbance, 280 nm 1M NaCl Eluate” value was “np” and the “Absorbance, 280 nm 2% Acetic Acid” value turned out to be 2.83.
Consider “SVRPFL (not fully specified (C-terminus)) [peptide synthesized on A-Totda-Toyopearl resin]”, for which the “binding of thrombin” value is recorded as “bound thrombin”. Besides, for the setting “50 μg α-thrombin applied”, the “Absorbance, 280 nm 1M NaCl Eluate” value was “np” and the “Absorbance, 280 nm 2% Acetic Acid” value was 0.57. Where the note is “100 μg α-thrombin applied”, the “Absorbance, 280 nm 1M NaCl Eluate” value was “np” and the “Absorbance, 280 nm 2% Acetic Acid” value came to 0.71. Also, under “200 μg α-thrombin applied”, the “Absorbance, 280 nm 1M NaCl Eluate” value is recorded as “np” and the “Absorbance, 280 nm 2% Acetic Acid” value is given as 2.06.
In the case of “VFPYAW (not fully specified (C-terminus)) [peptide synthesized on A-Totda-Toyopearl resin]”, the “binding of thrombin” value was “bound thrombin”. Besides, under “50 μg α-thrombin applied”, the “Absorbance, 280 nm 1M NaCl Eluate” value is listed as 0.16 and the “Absorbance, 280 nm 2% Acetic Acid” value is reported as 1.48. Where the note is “100 μg α-thrombin applied”, the “Absorbance, 280 nm 1M NaCl Eluate” value stood at 0.18 and the “Absorbance, 280 nm 2% Acetic Acid” value is given as 1.57. Besides, for the setting “200 μg α-thrombin applied”, the “Absorbance, 280 nm 1M NaCl Eluate” value is given as “np” and the “Absorbance, 280 nm 2% Acetic Acid” value stood at 3.59.
